Assays:
Conditions in all cases: 20 nM; 72 h
MCF10A [1] = test: one-nucleolus phenotype percent effect (relative to siNT 0% and siNOL11 100%); higher = more cells with one nucleolus (ribosome biogenesis inhibition)
Procedure: (§1)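 After 72 h, cells were fixed and stained with Hoechst and anti-fibrillarin, and nucleoli per nucleus were counted with CellProfiler. Values are plate-adjusted percent effect for the one-nucleolus and 5+ nucleoli phenotypes, normalised to siNT (0%) and to the positive controls siNOL11 or siKIF11 (100%), as the mean of biological triplicates. Percent viability is the nuclei count relative to siNT.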

MCF10A [2] = test: percent viability (nuclei count relative to siNT); higher = more viable cells
Procedure: as §1

MCF10A [3] = test: 5+ nucleoli phenotype percent effect (relative to siNT 0% and siKIF11 100%); higher = more cells with five or more nucleoli
Procedure: as §1

Sequence | one-nucleolus phenotype percent effect (MCF10A [1]) [%] | percent viability (MCF10A [2]) [%] | 5+ nucleoli phenotype percent effect (MCF10A [3]) [%]
ACUUGUAUGCUAGCUCAGGUAG [hsa-miR-643] | -31.1 | 165 | 68.8
CGGGGCAGCUCAGUACAGGAU [hsa-miR-486-3p] | 47.2 | 10.1 | -5.42
AUAGUGGGAAGCUGGCAGAUUC [hsa-miR-4727-3p] | 52.3 | 16.6 | -30.8
CAUCAUCGUCUCAAAUGAGUCU [hsa-miR-136-3p] | -9.83 | 37.4 | 22.1
UGAGCCUCUCCUUCCCUCCAG [hsa-miR-6823-3p] | -2.85 | 31.2 | 12.9
AUAAAGCUAGAUAACCGAAAGU [hsa-miR-9-3p] | 48.4 | 44.1 | -46.1
GCUCUGACGAGGUUGCACUACU [hsa-miR-301b-5p] | -22.6 | 60.8 | 15.2
AGCAGCAUUGUACAGGGCUAUGA [hsa-miR-103a-3p] | 15.6 | 36.3 | -29
UUCCCUUUGUCAUCCUAUGCCU [hsa-miR-204-5p] | -10.4 | 100 | 46
AAUCGUACAGGGUCAUCCACUU [hsa-miR-487b] | -10.7 | 59.9 | 24.3
GGGAGUGCAGGGCAGGGUUUC [hsa-miR-504-3p] | 14.7 | 36 | -22.6
CCAAGGAAGGAGGCUGGACAUC [hsa-miR-6830-5p] | 13.3 | 47.1 | -10.3
CAAACCCCUGUCUACCCGCAG [hsa-miR-6771-3p] | 15.7 | 40.5 | -19.1
AGAAGAAGGCGGUCGGUCUGCGG [hsa-miR-3185] | 33.8 | 29.1 | -27.8
UUUCCGGCUCGCGUGGGUGUGU [hsa-miR-1180] | 12.6 | 31.8 | -27.5
AAAGGUAACUGUGAUUUUUGCU [hsa-miR-548ba] | -24.2 | 146 | 38.2
CUGAAGCUCAGAGGGCUCUGAU [hsa-miR-127-5p] | 39 | 45.5 | -40.5
CACUUAGCAGGUUGUAUUAUAU [hsa-miR-374c-3p] | 0.51 | 50.7 | 0.0114
UCCAUUACACUACCCUGCCUCU [hsa-miR-885-5p] | -5.62 | 71.4 | -8.23
AGUGGGAGGCCAGGGCACGGCA [hsa-miR-1233-1-5p] | 24.3 | 26.5 | -38.8

Sequence | one-nucleolus phenotype percent effect (MCF10A [1]) [%] | percent viability (MCF10A [2]) [%] | 5+ nucleoli phenotype percent effect (MCF10A [3]) [%]
ACCUGGGUUGUCCCCUCUAG [hsa-miR-6742-3p] | -15.1 | 90.1 | 73.9
AAGCCCUUACCCCAAAAAGUAU [hsa-miR-129-1-3p] | 23.6 | 54.9 | -37.4
UUGUUCUCAAACUGGCUGUCAGA [hsa-miR-7156-5p] | -16.5 | 46.2 | 25.8
CAAAAGUGAUUGUGGUUUUUGC [hsa-miR-548az-5p] | -15.6 | 149 | 45.1
CUUCUGCCUGCAUUCUACUCCCAG [hsa-miR-6738-3p] | 12.5 | 51.1 | -13.9
AAUGUAAACAGGCUUUUUGCU [hsa-miR-4495] | 2.68 | 68.8 | 29.4
AUUGUUCUGUCUUUCUCCCAG [hsa-miR-6739-3p] | 7.82 | 27.3 | -25.7
UAGUGGUCCUAAACAUUUCACA [hsa-miR-203b-5p] | 58.6 | 15.6 | -42.9
UCAGGCCAGGCACAGUGGCUCA [hsa-miR-1972] | -4.54 | 30.6 | 17.7
UUCUCAAGGAGGUGUCGUUUAU [hsa-miR-513c-5p] | 19.8 | 30 | 3.99
UUAUUGCUUAAGAAUACGCGUAG [hsa-miR-137] | 47.7 | 114 | -22.6
CUAGACUGAAGCUCCUUGAGG [hsa-miR-151a-3p] | -1.52 | 66.5 | -6.07
AAUUUGGUUUCUGAGGCACUUAGU [hsa-miR-5002-5p] | 27.3 | 32.2 | 1.85
UUGAGGGGAGAAUGAGGUGGAGA [hsa-miR-6734-5p] | -5.42 | 35 | 2.95
CCUCUGGGCCCUUCCUCCAG [hsa-miR-326] | 56.9 | 20.2 | -35.6
AGCUGGUGUUGUGAAUCAGGCCG [hsa-miR-138-5p] | 13.5 | 21.6 | -24.6
AGGACUGGACUCCCGGCAGCCC [hsa-miR-4515] | 15.9 | 37.2 | -14.9
AAAGUGCUUCCUUUUAGAGGGU [hsa-miR-520c-3p] | -14.7 | 74.6 | 44.6
AAUCAGUGAAUGCCUUGAACCU [hsa-miR-5094] | -15 | 63.5 | -13.9
UCUGCCAUAGGAAGCUUGGAGUGG [hsa-miR-6817-5p] | -25 | 65.4 | 1.17

Sequence | one-nucleolus phenotype percent effect (MCF10A [1]) [%] | percent viability (MCF10A [2]) [%] | 5+ nucleoli phenotype percent effect (MCF10A [3]) [%]
UACUAACUGCAGAUUCAAGUGA [hsa-miR-4637] | -24.1 | 140 | 24.1
AUUAGGUAGUGGCAGUGGAAC [hsa-miR-6509-5p] | -17.9 | 55.7 | 6.73
UAAAAUUUGCAUCCAGGA [hsa-miR-4282] | -28.5 | 66 | 22.1
GCCGGACAAGAGGGAGG [hsa-miR-4442] | -19.9 | 96 | 25.4
UAGGUAGUUUCCUGUUGUUGGG [hsa-miR-196b-5p] | -8.68 | 41.4 | 54.4
CGGCUGGAGGUGUGAGGA [hsa-miR-3652] | 44.8 | 24 | -23.6
AGGGGACCAAAGAGAUAUAUAG [hsa-miR-3144-5p] | -9.41 | 38.1 | 33.4
AAAAGUAACUAUGGUUUUUGCC [hsa-miR-548bb-5p] | -28.8 | 138 | 30.8
CACUGUAGGUGAUGGUGAGAGUGGGCA [hsa-miR-1183] | 0.199 | 66.4 | 17.5
UAAGGUGCAUCUAGUGCAGUUAG [hsa-miR-18b-5p] | 40.6 | 41.9 | -32.4
GCCCCUGGGCCUAUCCUAGAA [hsa-miR-331-3p] | 6.3 | 61.2 | 8.19
GCGCUGACCCGCCUUCUCCGCA [hsa-miR-6825-3p] | -15 | 108 | 45.7
AAUGGAUUUUUGGAGCAGG [hsa-miR-1246] | 3.6 | 33 | -4.08
AACACACCUAUUCAAGGAUUCA [hsa-miR-362-3p] | -7.86 | 47.7 | 30.7
UCACAGUGAACCGGUCUCUUU [hsa-miR-128] | 12.2 | 81.7 | -27.9
CAGAGAAUUGUUUAAUC [hsa-miR-3123] | -40.8 | 124 | 54.9
AAGACUGAGAGGAGGGA [hsa-miR-4499] | -14 | 123 | 3.14
CUCUAGAGGGAAGCGCUUUCUG [hsa-miR-522-5p] | -5.68 | 40.6 | 0.209
AAGCAAUACUGUUACCUGAAAU [hsa-miR-3942-5p] | -6.02 | 36.6 | 13.9
